Measurements reported in article PMC2760398.

Assays:
[1] = target: Lyn11-FKBP12-sTEVp-CT (membrane-targeted FKBP12-TEVct of pBud-mem-sTEVp) (not stated | tobacco etch virus)
[2] = target: FKBP12-TEVct (118/119 sTEVp, C-terminal TEVp fragment fused to FKBP12) (not stated | tobacco etch virus); details: scale: % of the median FRET efficiency of control cells
[3] = target: C34V-FKBP12-TEVct (not stated | tobacco etch virus); details: scale: % of the median FRET efficiency of control cells
[4] = target: FKBP12-TEVct (118/119 sTEVp, C-terminal TEVp fragment fused to FKBP12) (not stated | tobacco etch virus); details: scale: % of the median FRET efficiency of control cells; remark: listed apart in the source
[5] = target: FKBP12-TEVct (118/119 sTEVp, C-terminal TEVp fragment fused to FKBP12) (not stated | tobacco etch virus); details: scale: % of the median FRET efficiency of control cells; remark: listed apart in the source
[6] = target: Lyn11-FKBP12-sTEVp-CT (membrane-targeted FKBP12-TEVct of pBud-mem-sTEVp) (not stated | tobacco etch virus); details: scale: % of the median FRET efficiency of control cells
[7] = target: Lyn11-FKBP12-sTEVp-CT (membrane-targeted FKBP12-TEVct of pBud-mem-sTEVp) (not stated | tobacco etch virus); details: scale: % of the median FRET efficiency of control cells; remark: listed apart in the source
[8] = target: FKBP12-TEVct (118/119 sTEVp, C-terminal TEVp fragment fused to FKBP12) (not stated | tobacco etch virus); details: scale: % of the median FRET efficiency of control cells; remark: listed apart in the source

FRB-TEVnt (118/119 sTEVp, N-terminal TEVp fragment fused to FRB) (from UniProt P42346 2018-2114)
inducible TEVp activity: median degree of current inactivation 1-(I95ms/Imax) of EGFP-KV3.4 (1 µg RNA) in HEK-293 cells, 1-3 µg pBud-mem-sTEVp, rapamycin (0.31 at 1 µg, 0.53 at 3 µg) [1]: 0.53
background TEVp activity: median FRET efficiency of membrane-targeted mem-C34V (100 ng) in HeLa cells, 300-1000 ng pBud-sol-sTEVp, without rapamycin (98% at 300 ng, 89% at 1000 ng) [2]: 98
inducible TEVp activity: median FRET efficiency of membrane-targeted mem-C34V (100 ng) in HeLa cells, 300-1000 ng pBud-sol-sTEVp, rapamycin (7% at 300 ng, 3% at 1000 ng) [2]: 7
background TEVp activity in cis: median FRET efficiency of C34V-FKBP12-TEVct (300 ng) in HeLa cells with 25 ng FRB-TEVnt, without rapamycin (significant decrease at 25 ng FRB-TEVnt and above) [3]: 84
inducible TEVp activity in cis: median FRET efficiency of C34V-FKBP12-TEVct (300 ng) in HeLa cells with 25 ng FRB-TEVnt, rapamycin for 3 hours (significant reduction also at 12 and 100 ng FRB-TEVnt) [3]: 0
background TEVp activity: median FRET efficiency of soluble C34V (100 ng) in HeLa cells, 300-1000 ng pBud-sol-sTEVp, without rapamycin (97% at 300 ng, 84% at 1000 ng) [4]: 97
inducible TEVp activity: median FRET efficiency of soluble C34V (100 ng) in HeLa cells, 300-1000 ng pBud-sol-sTEVp, 100 nM rapamycin for 3 hours (9% at 300 ng, 3% at 1000 ng) [4]: 9
TEVp activity by fragment complementation: median FRET efficiency of the substrate C34V in HeLa cells, 450 ng of each 118/119 sTEVp plasmid, 100 nM rapamycin for 3 hours at 37°C [5]: 3
background TEVp activity: median FRET efficiency of the substrate C34V in HeLa cells, 450 ng of each 118/119 sTEVp plasmid, without rapamycin [5]: 83
background TEVp activity: median FRET efficiency of membrane-targeted mem-C34V in HeLa cells, 300-1000 ng pBud-mem-sTEVp, without rapamycin (56% at 300 ng, 46% at 1000 ng) [6]: 56
inducible TEVp activity: median FRET efficiency of membrane-targeted mem-C34V in HeLa cells, 300-1000 ng pBud-mem-sTEVp, rapamycin for 3 hours [6]: < 4
background TEVp activity: median FRET efficiency of soluble C34V (100 ng) in HeLa cells, 300-1000 ng pBud-mem-sTEVp, without rapamycin (no significant difference from control) [7]: 100
inducible TEVp activity: median FRET efficiency of soluble C34V (100 ng) in HeLa cells, 300-1000 ng pBud-mem-sTEVp, rapamycin (30% at 300 ng, 12% at 1000 ng) [7]: 30
TEVp activity by fragment complementation: median FRET efficiency of the substrate C34V in HeLa cells, 125 ng sTEVp, rapamycin for 3 hours [8]: 3
background TEVp activity: median FRET efficiency of the substrate C34V in HeLa cells, 125 ng sTEVp (optimum of a titration of the plasmid mass from 40 ng upwards), without rapamycin [8]: 96
